The source of these data is patent US20170253645A1 (published 2017).

Assay [1] has as its target T1, TNF-α (UniProt P01375 77-233, biotinylated (sites not given)).
T1 construct: Bought protein; also called biotintylated TNF-α soluble protein
Nature of the assay: Octet BLI, biotinylated TNF-α on streptavidin tips, A6+Fc at 370 nM. The procedure:
(§1) The target protein was biotintylated TNF-α soluble protein (R&D Systems) and is at a concentration of 0.25 ug/ml for loading onto the streptavidin sensor tips. […] The Octet was run using the manufacturers protocol for Basic Kinetic Assay.
(In general: In BLI a coated tip is dipped into the sample, and binding shifts an interference pattern.)

Assay [2] deals with T1, TNF-α. Put plainly: Octet BLI, biotinylated TNF-α on streptavidin tips, A6 at 290 nM. The procedure:
as §1

The target of assay [3] is T2, HMGB1 (UniProt P09429 1-215, limits assumed, biotinylated in the RAGE assay (sites not given)).
T2 construct: also called biotinylated HMGB1
T2 sequence (looked up): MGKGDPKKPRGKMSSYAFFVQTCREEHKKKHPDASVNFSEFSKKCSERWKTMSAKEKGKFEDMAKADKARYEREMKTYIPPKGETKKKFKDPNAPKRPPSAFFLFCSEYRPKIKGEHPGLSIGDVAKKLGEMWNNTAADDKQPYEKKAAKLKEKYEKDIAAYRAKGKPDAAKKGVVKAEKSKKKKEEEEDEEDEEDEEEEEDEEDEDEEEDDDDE
Nature of the assay: Octet BLI. From the text:
We measured association and disassociation rates using the Octet (FIG. 26C).

Several values for one entry are separate records, joined by “and”; a condition that tells them apart may be missing. Equal entries are not always repeated.

T1 sequence (P01375 77-233 limits assumed): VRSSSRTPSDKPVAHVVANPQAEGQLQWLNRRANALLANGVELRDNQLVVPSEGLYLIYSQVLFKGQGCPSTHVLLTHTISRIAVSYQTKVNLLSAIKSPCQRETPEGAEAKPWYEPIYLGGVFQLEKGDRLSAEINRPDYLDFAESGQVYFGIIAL

B1: R41A6 Fc fusion protein (A6+Fc) (Fc fusion)
chain: NVSPPRRARVTDATETTITISWEHSEDDCYSYIYYFQVDAVPANGQTPIQRTISGYETYYTITGLQPGTDYKIYLYTLNSAGFCPPYSKPVVIDAST
notes: Expressed in E. coli BL-21(DE3) from pET-20b with pelB signal; it calls A6 alone monomeric; also called pET-20b+TNF A6+Fc #39; 14FN3-Fc fusion; not shown: C-terminal hexahistidine tag of pET-20b
For the molecule B1, in assay [1], the Kd (usually the equilibrium constant for the complex coming apart) is 24.8 nM and 14.9 nM and 11.7 nM; the koff (in general, the rate constant with which the complex falls apart) is 0.000226 s⁻¹ and 0.00022 s⁻¹ and 0.000229 s⁻¹; the on-rate constant (kon) (commonly the rate constant with which the complex forms) was 9120 M⁻¹ s⁻¹ and 14900 M⁻¹ s⁻¹ and 19500 M⁻¹ s⁻¹.

B2: TNF-α binder R41A6 (designed binder)
chain: NVSPPRRARVTDATETTITISWEHSEDDCYSYIYYFQVDAVPANGQTPIQRTISGYETYYTITGLQPGTDYKIYLYTLNSAGFCPPYSKPVVIDAST
notes: 14FN3 scaffold variant from the tyrosine WTM library; Octet); The NcoI primer adds ATGGAA before the NVSPP start in the pET-20b construct; also called TNF A6; not shown: C-terminal hexahistidine tag from pET-20b (Octet), or c-myc + 6xHis tags from the phagemid (soluble ELISA)
As to B2, in assay [2], the off-rate constant (koff) is 0.000438 s⁻¹ and 0.000267 s⁻¹.

B3: P2F3 anti-HMGB1 (designed binder)
chain: NVSPPRRARVTDATETTITIRWGVPHSFQVDAVPANGQTPIQRTIKRGVRSYTITGLQPGTDYKIYLYTLNDNARSSPVVIDAST
notes: soluble 6xHis-tagged protein in Octet; not shown: C-terminal tags from the phagemid incl; 6xHis (soluble form)
In assay [3], B3 returned a dissociation constant Kd of 277 nM and an on-rate constant (kon) of 97900 M⁻¹ s⁻¹.
